Measurements reported in patent US10640563B2, “Anti-B7-H3 antibodies and antibody drug conjugates” (AbbVie Inc., priority 2016, dated 2020).
Numbering of substitutions follows the chain as printed.

B1: chAb4-CZ (conjugate)
VH: QVQLQQPGAELVKPGASVKLSCKASGYSFTSYWMHWVKQRPGQGLEWIGMIHPNSGSNNYNEKFKSKATLTVDKSSNTAYMQLSSLTSEDSAVYYCARRLGLHFDYWGQGTTLTVSS
VL: DIVMTQSQKFMSTPVGDRVSITCKASQNVGTAVAWYQQKPGQSPKLLIYSASNRYTGVPDRFTGSGSGTDFTLTISNMQSEDLADYFCQQYSSYPYTFGGGTKLEIK
B2: chAb2 (conjugate)
VH: QVQLQQPGAELVKPGASVKLSCKASGYTFTSYWMHWVKQRPGQGLEWIGMIHPDSGTTNYNEKFRSKATLTVDKSSSTAYMQLSSLTSEDSAVYYCAVYYGSTYWYFDVWGTGTTVTVSS
VL: DVVMTQTPLSLPVSLGDQAYISCRSSQSLVHINGNTYLHWYRQKPGQSPKLLIYKVSNRFSGVPDRFSGSGSGTDFTLKISRVEAEDLGVYFCSQSTHFPFTFGSGTKLEIK
modifications: conjugated payload not specified; Synthetic chAb2 VH amino acid sequence; Synthetic chAb2 VL amino acid sequence
B3: chAb2-CZ (conjugate)
VH: B2 VH
VL: B2 VL
B4: chAb11-CZ (conjugate)
VH: EVKLVESGGGLVQPGGSLRLSCATSGFTFTNYYMSWVRQPPGKALEWLGFIRNKANDYTTEYSASVKGRFTISRDNSQSILYLQMNTLRAEDSATYYCARESPGNPFAYWGQGTLVTVSA
VL: DIVMTQSPSSLTVTAGEKVTMTCKSSQSLLNSGTQKNFLTWYQQKPGQPPKLLIYWASTRESGVPDRFTGSGSGTDFTLTISSVQAEDLAVYFCQNDYIYPLTFGAGTKLELK
B5: chAb14-CZ (conjugate)
VH: EVKLVESGGGLVKPGGSLKLSCAASGFTFSSYGMSWVRQTPEKRLEWVATISGGGTNTYYPDSVEGRFTISRDNAKNFLYLQMSSLRSEDTALYYCARHYGSQTMDYWGQGTSVTVSS
VL: DIQMTQSPASLSASVGETVTITCRTSGNIHNYLTWYQQKQGKSPQLLVYNAKTLADGVPSRFSGSGSGTQFSLKINSLQPEDFGSYYCQHFWSIMWTFGGGTKLEIK
B6: huAb3v6-CZ (conjugate)
VH: EVQLVQSGAEVKKPGSSVKVSCKASGYTFSSYWMHWVRQAPGQGLEWIGLIHPDSGSTNYNEMFKNRATLTVDRSTSTAYVELSSLRSEDTAVYFCAGGGRLYFDYWGQGTTVTVSS
VL: DVVMTQSPLSLPVTPGEPASISCRSSQSLVHSNGDTYLRWYLQKPGQSPQLLIYKVSNRFSGVPDRFSGSGSGTDFTLKISRVEAEDVGVYYCSQSTHVPYTFGGGTKVEIK
B7: chAb6 (conjugate)
VH: QVQLQQSGAELMKPGASVKISCKATGYTFSRYWIEWVKQRPGHGLEWIGEILPGSGSTNYNEKFKGKATFTADTSSNTAYMQVSSLTSEDSAVHYCARRGYGYVPYALDYWGQGTSVTVSS
VL: EIQMTQTTSSLSASLGDRVTISCRASQDISNSLNWYQQKPDGTVNLLIYYTSRLYSGVPSRFSGSGSGTDYSLTISNLEQEDIATYFCQQGNTLPYTFGGGTKLEIK
B8: chAb6-CZ (conjugate)
VH: B7 VH
VL: B7 VL
B9: chAb16 (conjugate)
VH: EVKLLESGGGLVQPGGSLKLSCAASGFDFSRYWMSWVRQAPGKGLEWIGEINPDSSTINYTPSLKDKFIISRDNAKNTLYLQMSKVRSEDTALYYCARPGFGNYIYAMDYWGQGTSVTVSS
VL: B7 VL with E1D, S22N, S32F, N45K, S56L, Y96P
modifications: conjugated drug; Synthetic chAb16 VH amino acid sequence; Synthetic chAb16 VL amino acid sequence
B10: chAb16-CZ (conjugate)
VH: B9 VH
VL: B7 VL with E1D, S22N, S32F, N45K, S56L, Y96P
B11: huAb18v6-CZ (conjugate)
VH: EVQLVQSGAEVKKPGSSVKVSCKASGYSFTSYTIHWVRQAPGQGLEWMGYINPNSRNTDYAQKFQGRVTLTADKSTSTAYMELSSLRSEDTAVYYCARYSGSTPYWYFDVWGQGTTVTVSS
VL: EIVLTQSPDFQSVTPKEKVTITCRASSSVSYMNWYQQKPDQSPKLLIKATSNLASGVPSRFSGSGSGTDFTLTINSLEAEDAATYYCQQWSSNPLTFGQGTKLEIK
B12: huAb18v7-CZ (conjugate)
VH: B11 VH
VL: B11 VL with L45P, L46W, K48Y, G63V, G65V, F70H
B13: huAb18v9-CZ (conjugate)
VH: B11 VH with M48I, A61N, Q65K, G66D, V68T, K74R
VL: B11 VL with L45P, L46W, K48Y, G63V, G65V, F70H

How the values were obtained:
[1] = Size exclusion chromatography, % aggregate of ADC; format: physicochemical; settings: ADC with synthon CZ, conjugation Method A
Description: The DAR and percentage aggregation of ADCs synthesized were determined by LC-MS and size exclusion chromatography (SEC), respectively.
Size exclusion chromatography was performed using a Shodex KW802.5 column in 0.2 M potassium phosphate pH 6.2 with 0.25 mM potassium chloride and 15% IPA at a flow rate of 0.75 ml/min. The peak area absorbance at 280 nm was determined for each of the high molecular weight and monomeric eluents by integration of the area under the curve. The % aggregate fraction of the conjugate sample was determined by dividing the peak area absorbance at 280 nm for the high molecular weight eluent by the sum of the peak area absorbances at […] of the high molecular weight and monomeric eluents multiplied by 100%.

[2] = Observation after conjugation to synthon (Method A); format: physicochemical; settings: after conjugation to Bcl-xLi synthon CZ
Description: (§1) Nine anti-B7-H3 chimeric antibodies were conjugated to the Bcl-xL inhibiting (Bcl-xLi) synthon CZ (Example 2.1) using conjugation Method A described below. The resulting ADCs (anti-B7-H3 antibodies conjugated to synthon CZ) were tested for binding to cell surface human B7-H3 by FACS (as described in Example 6) and for cell cytotoxicity in cell lines expressing B7-H3. […] Table 6 provides cell surface binding and cytotoxicity activity of anti-B7-H3 chimera ADCs against breast cancer cell HCC38 expressing human B7-H3.
A solution of Bond-Breaker™ tris(2-carboxyethyl)phosphine (TCEP) solution (10 mM, 0.017 mL) was added to a solution of antibody (10 mg/mL, 1 mL) preheated to 37° C. The reaction mixture was kept at 37° C. for 1 hour. The solution of reduced antibody was added to a solution of synthon (3.3 mM, 0.160 mL in DMSO) and gently mixed for 30 minutes. The reaction solution was loaded onto a desalting column (PD10, washed with Dulbecco's phosphate-buffered saline [DPBS] 3× before use), followed by DPBS (3 mL). The purified ADC solution was filtered through a 0.2 micron, low protein-binding 13 mm syringe-filter and stored at 4° C.

[3] = tested on: HCC38 (breast cancer) cells; assay: In vitro cell viability assay (CellTiter-Glo), HCC38; format: cell-based, human; settings: for IC50: ADC with synthon CZ, HCC38 breast cancer cells, viability after 5 days, read-out: Cytotoxicity (HCC38 cell line IC50nM); for cytotoxicity in cells expressing human B7-H3 (in words): antibody conjugated to synthon CZ
Description: as §1
The tumor cell lines HCC38 (breast cancer), NCI-H1650 (NSCLC) and NCI-H847 (small cell lung cancer cell line) were obtained from American Type Culture Collection (ATCC). Cells were grown in 96-well culture plates using recommended growth media overnight at a density of 5×10^3 (HCC38) or 20×10^3 (NCI-H847) or 40×10^3 (NCI-H1650) per well. The following day, treatments were added in fresh media to triplicate wells. Cellular viability was determined 5 days later using the CellTiter-Glo Luminescent Cell Viability Assay kit (Promega), as directed in the manufacturer's protocol. Cell viability was assessed as percentage of control untreated cells.

[4] = Aggregation of conjugates by SEC; format: physicochemical
NCI-H146 cells = assay: In vivo xenograft model of small cell lung cancer (NCI-H146); design: species or system mice; settings: 6 mg/kg/IP/QDx1
HCC38 cell line = assay: Cell cytotoxicity of ADCs in HCC38 cell line; format: cell-based; settings: CZ conjugates
Description: The humanization of chAb18 generated 10 variants (described above in Table 9) that retained binding to human and cyno B7-H3 as assessed by FACS (the method of which is described above in Example 6). These variants were further characterized for binding by SPR and were successfully conjugated to the Bcl-xL inhibitor synthon CZ using Method A (described above) and assessed for cell cytotoxicity as described in Example 7. The parental chAb18 from which the variants were derived was also tested as a comparator. All humanized variants had similar binding properties as assessed by biacore, and retained binding activity to cell surface expressed as conjugates with the CZ synthon. The cytotoxicity of all of the variants as CZ synthons were similar to the chAb18 from which they were derived.
Humanized chAb18 variants were conjugated to the CZ synthon and tested for cytotoxicity in HCC38 cell line.

[5] = Table 10, CZ conjugates of Ab18 variants

| Molecule | % agg by SEC [1] | Conjugation observation [2] | IC50 [3] | other results |
| --- | --- | --- | --- | --- |
| B1 | 5.7% | Clear | 0.26 nM | – |
| B2 | – | precipitated | – | cytotoxicity in cells expressing human B7-H3 (in words) [3]: weak cytotoxicity |
| B3 | 5.9% | Precipitates | 4.77 nM | – |
| B4 | 5.6% | Clear | 2.34 nM | – |
| B5 | 1.9% | Clear | 2.01 nM | – |
| B6 | – | – | – | % agg by SEC ([4]; Table 14, CZ conjugates of Ab3 variants): 4.9%; TGD (%) (NCI-H146 cells; Table 15): 88%; TGImax (%) (NCI-H146 cells; Table 15): 91%; IC50 (HCC38 cell line; Table 14): 0.13 nM |
| B7 | – | precipitated | – | cytotoxicity in cells expressing human B7-H3 (in words) [3]: weak cytotoxicity |
| B8 | 0.5% | Precipitates | 81 nM | – |
| B9 | – | precipitated | – | cytotoxicity in cells expressing human B7-H3 (in words) [3]: weak cytotoxicity |
| B10 | 2.3% | Precipitates | 21.9 nM | – |
| B11 | – | – | – | % agg by SEC [4, 5]: 3.5%; TGD (%) (NCI-H146 cells; Table 11): 45%; TGImax (%) (NCI-H146 cells; Table 11): 86%; IC50 (HCC38 cell line; Table 10): 0.14 nM |
| B12 | – | – | – | % agg by SEC [4, 5]: 3.6%; TGD (%) (NCI-H146 cells; Table 11): 42%; TGImax (%) (NCI-H146 cells; Table 11): 87%; IC50 (HCC38 cell line; Table 10): 0.03 nM |
| B13 | – | – | – | % agg by SEC [4, 5]: 3.8%; TGD (%) (NCI-H146 cells; Table 11): 35%; TGImax (%) (NCI-H146 cells; Table 11): 83%; IC50 (HCC38 cell line; Table 10): 0.9 nM |
